Source: publication doi:10.1101/2025.09.19.677352

Legend:
[1] = molecular target: ap JFcα (mallard duck IgA heavy chain Cα2-Cα3-Cα4-Tp co-expressed with joining chain) (Anas platyrhynchos (mallard duck)); experiment: SPR
[2] = molecular target: mm JFcα (mouse IgA heavy chain and joining chain) (Mus musculus (house mouse)); experiment: SPR

SPR response [1] [RU]	Substance	other results
–	ap SC D1_(ΔN-ext.)-D2-D3-D4 (mallard duck SC without the SC N-terminal extension) (domain or fragment)	maximum response against concentration-matched ap SC wt [1]: 20 % lower
29	hs SC D1 (human SC D1 only) (domain or fragment)	–
34	hs SC D1-D3-D4-D5 (human SC with D2 deletion) (from UniProt P01833 19-638) (domain or fragment)	–
7	mm SC D1 (mouse SC D1 only) (domain or fragment)	–
1	mm SC D1-D3-D4-D5 (mouse SC with D2 deletion) (from UniProt O70570 19-585) (domain or fragment)	–
–	mm SC D1_((+)N-ext.) (mouse SC D1 with the mallard duck SC N-terminal extension)	maximum response at 64 nM against the non-chimeric variant [2]: 93 % higher
